Laboratory results: the FLAb antibody collection

B1: unnamed (protein)
chain 1: QVQLQQSGPEVVKPGASVKMSCKASGYTFTSYVIHWVRQKPGQGLDWIGYINPYNDGTDYDEKFKGKATLTSDTSTSTAYMELSSLRSEDTAVYYCAREKDNYATGAWFAYWGQGTLVTVSS
chain 2: DIVMTQSPDSLAVSLGERVTMNCKSSQSLLYSTNQKNYLAWYQQKPGQSPKLLIYWASTRESGVPDRFSGSGSGTDFTLTISSVQAEDVAVYYCQQYYSYRTFGGGTKLEIK
B2: unnamed (protein)
chain 1: EVQLVQSGAEVKKPGESLKISCKGSGYSFSNYWIGWVRQMPGKGLEWMGIIDPSNSYTRYSPSFQGQVTISADKSISTAYLQWSSLKASDTAMYYCARWYYKPFDVWGQGTLVTVSS
chain 2: QSVLTQPPSVSGAPGQRVTISCTGSSSNIGSGYDVHWYQQLPGTAPKLLIYGNSKRPSGVPDRFSGSKSGTSASLAITGLQSEDEADYYCASWTDGLSLVVFGGGTKLTVL
B3: unnamed (protein)
chain 1: QAYLQQSGAELVRPGASVKMSCKASGYTFTSYNMHWVKQTPRQGLEWIGAIYPGNGDTSYNQKFKGKATLTVDKSSSTAYMQLSSLTSEDSAVYFCARVVYYSNSYWYFDVWGTGTTVTVSA
chain 2: QIVLSQSPAILSASPGEKVTMTCRASSSVSYMHWYQQKPGSSPKPWIYAPSNLASGVPARFSGSGSGTSYSLTISRVEAEDAATYYCQQWSFNPPTFGAGTKLELK
B4: unnamed (protein)
chain 1: EVHLVESGGALVKPGGSLRLSCAASGFSFSKYGMSWVRQAPGKGLEWVATISSSGSRTYYPDSVKGRFTISRDNAKNTLYLQMNSLRAEDTAMYYCSISWDGAMDYWGQGTTVTVSS
chain 2: DVVMTQSPLSLPVTLGQPASISCKSSQSIVHSNGNTYLEWYLQKPGQSPQLLVYKVSNRFSGVPDRFSGSGSGTDFTLKISRVEAEDVGTYYCFQGSLVPWAFGGGTKVEIK
B5: unnamed (protein)
chain 1: EVQLLESGGGLVQPGGSLRLSCAASGFTFSSYAMNWVRQAPGKGLEWVSAITMSGITAYYTDDVKGRFTISRDNSKNTLYLQMNSLRAEDTAVYYCAKEEFLPGTHYYYGMDVWGQGTTVTVSS
chain 2: AIQMTQSPSSLSASVGDRVTITCRASQGIRNDLGWYQQKPGKAPKLLIYSASTLQSGVPSRFSGSGSGTDFTLTISSLQPEDFATYCLQDYNYPWTFGQGTKVEIK
B6: unnamed (protein)
chain 1: QVQLQESGPGLVKPSQTLSLTCSFSGFSLSTSGMGVGWIRQPSGKGLEWLAHIWWDGDESYNPSLKSRLTISKDTSKNQVSLKITSVTAADTAVYFCARNRYDPPWFVDWGQGTLVTVSS
chain 2: DIQMTQSTSSLSASVGDRVTITCRASQDISNYLSWYQQKPGKAVKLLIYYTSKLHSGVPSRFSGSGSGTDYTLTISSLQQEDFATYFCLQGKMLPWTFGQGTKLEIK

test: patients with anti-drug antibodies; higher = more immunogenic

Protein | patients with anti-drug antibodies
B1 | 15%
B2 | 6%
B3 | 1.9%
B4 | 6.2%
B5 | 2.5%
B6 | 37%
